{"source": "patent US20060246519A1", "about": "“MONOMERIC STREPTAVIDIN MUTEINS” (priority 2005, published 2006)", "key": {"[1]": {"assay": "Degree of monomerization of non-boiled samples in SDS-PAGE / Western blot", "assay_type": "physicochemical", "protocol": "FIG. 3: Western blot analysis of cell culture supernatants from B. subtilis strains producing streptavidin muteins carrying a single mutation. 15 μl of non-boiled sample of culture supernatant was loaded to each lane. Samples on the left set were collected from B. subtilis strains cultured in super-rich medium without additional supplement of biotin. Samples on the right set were collected from B. subtilis strains cultured in super-rich medium with additional supplementation of biotin (20 μM). The blot was probed with polyclonal antibodies against streptavidin and developed using 4-chloro-1-napthol (Bio-Rad) as the colour development agent. […] M, molecular weight markers; wt, wild type streptavidin.\nFIG. 4: Analysis of culture supernatants from B. subtilis strains producing streptavidin muteins carrying different combinations of mutations. All these strains were cultivated in super-rich medium supplemented with biotin (20 μM). The 15 μl of non-boiled samples of culture supernatants were loaded. FIG. 4A. Coomassie blue stained SDS-polyacrylamide gel. Bands corresponding to tetrameric and monomeric streptavidin are marked by an asterisk and an arrowhead, respectively. FIG. 4B. Western blot probed with polyclonal antibodies against streptavidin. M, molecular weight markers; wt, wild type streptavidin; AK, mutein (D61A, W 120K); M1, mutein (T76R); M2, mutein (T76R, V125R); M4, mutein (T76R, V125R, V55T, L109T); C, negative control.\nStreptavidin muteins carrying a single amino-acid change at the selected site may be produced in their soluble form by B. subtilis via secretion. Analysis of non-boiled culture supernatants by SDS-PAGE offers a quick screen for the mutation effect (Qureshi, 2001). Weaker subunit interaction would result in a higher percentage of the sample in the monomeric state on the SDS-polyacrylamide gel. Since biotin can strengthen subunit interaction, samples were analyzed in the presence or absence of biotin (Laitinen, 2001; Gonzalez, 1999).\nIn single mutation muteins, the impact of the mutation on weakening of the subunit interaction followed the order T76R>V125R>[…]≈V55R>V55T (FIG. 3 and Table 4). The T76R mutein (referred to herein as M1) existed 100% in the monomeric state on the SDS-polyacrylamide gel even in the presence of biotin. In contrast, V55T mutation had the lowest impact, with the majority of molecules in the tetrameric state even in the absence of added biotin. Presence of biotin shifts the majority of the three remaining muteins (V125R, V125T and V55R) to the tetrameric state. Changing valine to arginine exerted greater impact than changing it to threonine. This is true for both Val-125 and Val-55."}, "[2]": {"assay": "Apparent molecular mass by gel filtration (Bio-Prep SE 100/17)", "assay_type": "physicochemical", "excerpt": "FIG. 6: Gel filtration profiles of streptavidin muteins. FIG. 6A. […] Bovine gamma-globulin (158 kDa), bovine serum albumin (66 kDa), ovalbumin (44 kDa), myoglobin (17 kDa) and vitamin B-12 (1.35 kDa) were used as molecular mass markers (closed circles) to calibrate the column. The logarithm of molecular mass was plotted versus Kav (Kav=(Ve−Vo)/(Vt−Vo); Ve, elution volume; Vo, void volume; Vt, bed volume). Positions of wild-type streptavidin (wt) and streptavidin muteins are represented by solid squares. FIG. 6B. Elution profile of M4 mutein (loaded at 2 mg/ml) on the gel filtration column.\n(§1) Molecular mass of purified streptavidin and its muteins was estimated by both gel filtration and dynamic light scattering studies. Gel filtration was performed on the Bio-Rad biologic workstation equipped with a Bio-Prep SE 100/17 column that had been calibrated with molecular mass protein markers (Bio-Rad). Molecular mass was also estimated from the hydrodynamic radius of the mutein obtained using a DynaPro MS dynamic light scattering instrument (Protein Solutions, USA) that had been calibrated with lysozyme. Protein samples (2-3 mg/ml in PBS) were passed through a 0.02 μm filter (Whatman Anodisc 13) immediately prior to measurement. The size distribution profile was analyzed using the manufacturer's Dynamics V6 software."}, "[3]": {"assay": "Dynamic light scattering (hydrodynamic radius, estimated molecular mass)", "assay_type": "physicochemical", "conditions": "for M (kDa) (Dynamic light scattering): calculated from measured RH using a protein calibration curve", "protocol": "as §1"}, "proteinase K": {"test_system": "proteinase K", "assay": "Proteinase K digestion of streptavidin and its muteins", "assay_type": "biochemical", "protocol": "Purified streptavidin and its muteins (30 μM monomer) were treated with proteinase K (Invitrogen, 5 μM) for 15 min at 30° C. in 50 mM Tris-HCl containing 5 mM CaCl2, pH 8.0. The reaction was stopped by precipitation with trichloroacetic acid (Ellison, 1995). Boiled samples of precipitated proteins were resolved by reducing SDS-PAGE. The same analysis was performed with streptavidin samples treated with biotin (1 mM final concentration) prior to proteinase K digestion."}, "[4]": {"assay": "Cross-linking reactions with sulfo-EGS", "assay_type": "physicochemical", "conditions": "10-fold molar excess sulfo-EGS, 30 min, room temperature", "protocol": "Cross-linking of streptavidin and its muteins was carried out using sulfo-EGS [ethylene glycolbis(sulfosuccinimidyl succinate)] (Pierce) as the cross-linker. A typical reaction mixture (20 μl) contained the purified mutein (0.2 5 mg/ml) and sulfo-EGS (10-fold molar excess over the protein) in PBS. After 30 min at room temperature, the reaction was quenched with Tris-HCl (30 mM, pH 7.5). Aliquots of the cross-linking reaction samples were boiled and examined by SDS-PAGE. Lysozyme (Sigma, 0.25 mg/ml) was included in the study to help establish the optimal reaction conditions."}, "[5]": {"test_system": "Biotin-conjugated bovine serum albumin", "assay": "Kinetic analysis by surface plasmon resonance BIAcoreX biosensor", "assay_type": "binding", "conditions": "interaction with biotin", "protocol": "FIG. 8: Kinetic parameters for the interaction between M4 streptavidin mutein and biotin as monitored by BIAcore biosensor. A. On-rate (ka) determination. ka is derived from association analysis. kd is the slope of the plot of In(Ro/Rt) versus (t−to) where Ro is the response at an arbitrary starting time to; Rt is the response at time t.\nThe kinetic parameters (both on- and off-rates for interaction with biotin) of streptavidin muteins were determined in real time using the surface plasmon resonance based BIAcoreX biosensor. Biotin-conjugated bovine serum albumin immobilized on CM5 sensor chip was used to study the reversibility of biotin binding (Qureshi, 2001)."}, "[6]": {"conditions": "independent of the presence or absence of biotin, 5 μM proteinase K, 15 min, 30° C."}}, "data": [{"substance": "AK: prior art streptavidin mutein carrying double mutations D61A, W120K [reference compound]", "values": [{"measurement": "Monomer (percentage of streptavidin in monomeric state)", "setting": "[1]; No additional biotin", "result": 100, "unit": "%"}, {"measurement": "Monomer (percentage of streptavidin in monomeric state)", "setting": "[1]; With additional biotin (20 μM)", "result": 100, "unit": "%"}, {"measurement": "M (kDa) (Gel filtration)", "setting": "[2]; +biotin", "result": 50.12, "unit": "kDa"}, {"measurement": "M (kDa) (Gel filtration)", "setting": "[2]; no biotin", "result": 45.66, "unit": "kDa"}, {"measurement": "RH (nm) (Dynamic light scattering)", "setting": "[3]; +biotin", "result": "3.54 ± 0.38", "unit": "nm"}, {"measurement": "M (kDa) (Dynamic light scattering)", "setting": "[3]; +biotin", "result": 63, "unit": "kDa"}, {"measurement": "RH (nm) (Dynamic light scattering)", "setting": "[3]; no biotin", "result": "3.20 ± 0.23", "unit": "nm"}, {"measurement": "M (kDa) (Dynamic light scattering)", "setting": "[3]; no biotin", "result": 50, "unit": "kDa"}, {"measurement": "Susceptibility to proteinase K digestion", "setting": "proteinase K; absence of biotin", "result": "most of it was digested"}, {"measurement": "Susceptibility to proteinase K digestion", "setting": "proteinase K; biotin present (1 mM)", "result": "much more resistant"}, {"measurement": "Oligomeric state after cross-linking with sulfo-EGS (SDS-PAGE)", "setting": "[4]", "result": "cross-linking profile very similar to that of the wild type streptavidin"}, {"measurement": "ka, on-rate", "setting": "[5]", "result": "1.46 ± 0.05 × 10^4 M^−1s^−1"}, {"measurement": "kd, off-rate", "setting": "[5]", "result": "3.59 ± 0.03 × 10^−3 s^−1"}]}, {"substance": "M1: streptavidin mutein carrying the single mutation T76R", "values": [{"measurement": "Monomer (percentage of streptavidin in monomeric state)", "setting": "[1]; No additional biotin", "result": 100, "unit": "%"}, {"measurement": "Monomer (percentage of streptavidin in monomeric state)", "setting": "[1]; With additional biotin (20 μM)", "result": 100, "unit": "%"}]}, {"substance": "M2: streptavidin double mutant carrying T76R and V125R mutations", "values": [{"measurement": "Monomer (percentage of streptavidin in monomeric state)", "setting": "[1]; No additional biotin", "result": 100, "unit": "%"}, {"measurement": "Monomer (percentage of streptavidin in monomeric state)", "setting": "[1]; With additional biotin (20 μM)", "result": 100, "unit": "%"}, {"measurement": "M (kDa) (Gel filtration)", "setting": "[2]; +biotin", "result": 23.44, "unit": "kDa"}, {"measurement": "M (kDa) (Gel filtration)", "setting": "[2]; no biotin", "result": 19.95, "unit": "kDa"}, {"measurement": "RH (nm) (Dynamic light scattering)", "setting": "[3]; +biotin", "result": "2.09 ± 0.29", "unit": "nm"}, {"measurement": "M (kDa) (Dynamic light scattering)", "setting": "[3]; +biotin", "result": 18, "unit": "kDa"}, {"measurement": "RH (nm) (Dynamic light scattering)", "setting": "[3]; no biotin", "result": "1.98 ± 0.24", "unit": "nm"}, {"measurement": "M (kDa) (Dynamic light scattering)", "setting": "[3]; no biotin", "result": 17, "unit": "kDa"}, {"measurement": "Susceptibility to proteinase K digestion", "setting": "proteinase K; [6]", "result": "completely digested"}, {"measurement": "Oligomeric state after cross-linking with sulfo-EGS (SDS-PAGE)", "setting": "[4]", "result": "migrated as monomers"}, {"measurement": "ka, on-rate", "setting": "[5]", "result": "1.88 ± 0.07 × 10^4 M^−1s^−1"}, {"measurement": "kd, off-rate", "setting": "[5]", "result": "3.22 ± 0.01 × 10^−3 s^−1"}]}, {"substance": "V55R: streptavidin mutein carrying the single mutation V55R", "values": [{"measurement": "Monomer (percentage of streptavidin in monomeric state)", "setting": "[1]; No additional biotin", "result": 20, "unit": "%"}, {"measurement": "Monomer (percentage of streptavidin in monomeric state)", "setting": "[1]; With additional biotin (20 μM)", "result": 10, "unit": "%"}]}, {"substance": "V55T: streptavidin mutein carrying the single mutation V55T", "values": [{"measurement": "Monomer (percentage of streptavidin in monomeric state)", "setting": "[1]; No additional biotin", "result": 1, "unit": "%"}, {"measurement": "Monomer (percentage of streptavidin in monomeric state)", "setting": "[1]; With additional biotin (20 μM)", "result": 0, "unit": "%"}]}, {"substance": "V125R: streptavidin mutein carrying the single mutation V125R", "values": [{"measurement": "Monomer (percentage of streptavidin in monomeric state)", "setting": "[1]; No additional biotin", "result": 92, "unit": "%"}, {"measurement": "Monomer (percentage of streptavidin in monomeric state)", "setting": "[1]; With additional biotin (20 μM)", "result": 12, "unit": "%"}]}, {"substance": "V125T: streptavidin mutein carrying the single mutation V125T", "values": [{"measurement": "Monomer (percentage of streptavidin in monomeric state)", "setting": "[1]; No additional biotin", "result": 25, "unit": "%"}, {"measurement": "Monomer (percentage of streptavidin in monomeric state)", "setting": "[1]; With additional biotin (20 μM)", "result": 0, "unit": "%"}]}, {"substance": "Wt: wild-type streptavidin produced by B. subtilis WB800 [reference compound]", "values": [{"measurement": "M (kDa) (Gel filtration)", "setting": "[2]; no biotin", "result": 56.23, "unit": "kDa"}, {"measurement": "M (kDa) (Gel filtration)", "setting": "[2]; no biotin, listed as wild-type streptavidin", "result": 56, "unit": "kDa"}, {"measurement": "RH (nm) (Dynamic light scattering)", "setting": "[3]; no biotin", "result": "3.69 ± 0.19", "unit": "nm"}, {"measurement": "M (kDa) (Dynamic light scattering)", "setting": "[3]; no biotin", "result": 69, "unit": "kDa"}, {"measurement": "Susceptibility to proteinase K digestion", "setting": "proteinase K; [6]", "result": "converted to the core form"}, {"measurement": "Oligomeric state after cross-linking with sulfo-EGS (SDS-PAGE)", "setting": "[4]", "result": "most of these subunits were cross-linked to dimers and higher oligomers"}]}]}
